The source of these data is the supplement of paper PMC9112550, “Optimization of the antimicrobial peptide Bac7 by deep mutational scanning” (BMC Biology, 2022).

This data set has as its system Escherichia coli TOP10. Description: shrunken log2 fold change of peptide-encoding DNA abundance (4.5 h post-induction vs induction); higher = less antimicrobial activity (less host growth inhibition). The conditions noted are these: time post-induction: 4.5 h; library: site-saturation at positions 5, 18, 19, 20.
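Further: peptides expressed intracellularly from a pBAD plasmid library in pooled LB shake-flask culture, induced with 0.3% L-arabinose, DNA abundance read by NGS, three biological replicates, DESeq2 with apeglm shrinkage.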

Turning to RRIRSRPPRLPRPRPRPWAQPRP, the “shrunken log2 fold change” value was -0.0414.
The value for RRIRWRPPRLPRPRPRPSFYPRP was -0.328; that for RRIRHRPPRLPRPRPRPQGDPRP was 0.0795.
For RRIRRRPPRLPRPRPRPPHIPRP the value was 0.655.
For RRIRERPPRLPRPRPRPAYPPRP the value was -0.403; for RRIRVRPPRLPRPRPRPVFDPRP, -0.079.
For RRIRNRPPRLPRPRPRPPWPPRP, the “shrunken log2 fold change” value turned out to be 0.387.
For RRIRWRPPRLPRPRPRPFYRPRP, the “shrunken log2 fold change” value is -0.179.
For RRIRCRPPRLPRPRPRPFSFPRP the value was -0.513.
For RRIRGRPPRLPRPRPRPQGIPRP the value was -0.128.
The value for RRIRMRPPRLPRPRPRPWRSPRP was 0.166; that for RRIRGRPPRLPRPRPRPTGFPRP was 1.23; that for RRIRNRPPRLPRPRPRPQIEPRP was -0.251.
For RRIRARPPRLPRPRPRPNSYPRP, the “shrunken log2 fold change” value was -0.00611.
The value for RRIRQRPPRLPRPRPRPEIHPRP was -0.0415.
The value for RRIRIRPPRLPRPRPRPVVYPRP was -0.312; that for RRIRVRPPRLPRPRPRPSSDPRP was -0.131; that for RRIRGRPPRLPRPRPRPTMIPRP was 0.0786.
In the case of RRIRDRPPRLPRPRPRPDFLPRP, the “shrunken log2 fold change” value came out at 0.136.
Regarding RRIRMRPPRLPRPRPRPDMWPRP, the “shrunken log2 fold change” value was 0.805.
Turning to RRIRVRPPRLPRPRPRPANAPRP, the “shrunken log2 fold change” value was -0.0677.
In the case of RRIRMRPPRLPRPRPRPSLLPRP, the “shrunken log2 fold change” value stood at 0.0721.
The value for RRIRERPPRLPRPRPRPSMVPRP was -0.86.
The value for RRIRRRPPRLPRPRPRPIDHPRP was -0.12; that for RRIRCRPPRLPRPRPRPMDDPRP was -0.194.
For RRIRWRPPRLPRPRPRPALHPRP the value was 0.277; for RRIRRRPPRLPRPRPRPWVMPRP, -0.123.
Take RRIRWRPPRLPRPRPRPLLWPRP: the “shrunken log2 fold change” value was found to be 0.571.
For the sequence RRIRERPPRLPRPRPRPEGYPRP, the “shrunken log2 fold change” value is -0.00062.
The value for RRIRDRPPRLPRPRPRPSNAPRP was -0.184.
For RRIRYRPPRLPRPRPRPIWNPRP the value was 0.0337; for RRIRYRPPRLPRPRPRPYQPPRP, 0.0857.
For RRIRCRPPRLPRPRPRPCIFPRP the value was -0.396; for RRIRSRPPRLPRPRPRPLSWPRP, 0.239; for RRIRFRPPRLPRPRPRPAVPPRP, 0.0613.
For the sequence RRIRPRPPRLPRPRPRPAVRPRP, the “shrunken log2 fold change” value was -0.246.
Take RRIRARPPRLPRPRPRPVNKPRP: the “shrunken log2 fold change” value was -0.117.
For RRIRGRPPRLPRPRPRPQWWPRP the value was 0.53; for RRIRSRPPRLPRPRPRPRAEPRP, 0.492; for RRIRQRPPRLPRPRPRPDQWPRP, 0.129.
Regarding RRIRPRPPRLPRPRPRPRPDPRP, the “shrunken log2 fold change” value came to 0.45.
For RRIRERPPRLPRPRPRPLFNPRP the value was -0.62; for RRIRNRPPRLPRPRPRPAVYPRP, -0.0398; for RRIRMRPPRLPRPRPRPCDAPRP, 0.261.
The value for RRIRIRPPRLPRPRPRPHYWPRP was -0.85.
For RRIRQRPPRLPRPRPRPDNKPRP the value was -0.532.
For the sequence RRIRFRPPRLPRPRPRPPEGPRP, the “shrunken log2 fold change” value was 0.996.
RRIRNRPPRLPRPRPRPDTNPRP: the “shrunken log2 fold change” value was -0.141.
The value for RRIRSRPPRLPRPRPRPAFMPRP was 0.309; that for RRIRHRPPRLPRPRPRPFMLPRP was -0.726; that for RRIRMRPPRLPRPRPRPDPMPRP was 0.501.
The value for RRIRFRPPRLPRPRPRPDRCPRP was -0.208.
On to RRIRQRPPRLPRPRPRPCFGPRP, for which the “shrunken log2 fold change” value was 0.0162.
The value for RRIRCRPPRLPRPRPRPIHVPRP was -0.377; that for RRIRRRPPRLPRPRPRPHRVPRP was -0.0232; that for RRIRDRPPRLPRPRPRPCQYPRP was -0.0971.
For RRIRWRPPRLPRPRPRPNQLPRP the value was -0.208; for RRIRQRPPRLPRPRPRPMTQPRP, -0.0451; for RRIRCRPPRLPRPRPRPEKQPRP, -0.0123.
As for RRIRHRPPRLPRPRPRPSFLPRP, the “shrunken log2 fold change” value is -0.729.
For RRIRLRPPRLPRPRPRPFGEPRP the value was 0.084; for RRIRERPPRLPRPRPRPHVRPRP, -0.105; for RRIRGRPPRLPRPRPRPQPMPRP, 0.412.
Take RRIRCRPPRLPRPRPRPKVQPRP: the “shrunken log2 fold change” value is 0.0235.
The value for RRIRARPPRLPRPRPRPADLPRP was 0.729.
For RRIRNRPPRLPRPRPRPDDVPRP the value was -0.0233; for RRIRWRPPRLPRPRPRPVHMPRP, -0.0785.
For RRIRERPPRLPRPRPRPNNIPRP the value was -0.787; for RRIRIRPPRLPRPRPRPFQGPRP, 0.0801.
For RRIRQRPPRLPRPRPRPFEIPRP, the “shrunken log2 fold change” value came to 0.0112.
For RRIRRRPPRLPRPRPRPCAVPRP the value was 0.0527.
The value for RRIRDRPPRLPRPRPRPVRHPRP was 0.646; that for RRIRDRPPRLPRPRPRPGTGPRP was 0.304; that for RRIRERPPRLPRPRPRPCIAPRP was -0.753.
The value for RRIRYRPPRLPRPRPRPIVFPRP was -0.58; that for RRIRCRPPRLPRPRPRPKHPPRP was -0.0559.
In the case of RRIRDRPPRLPRPRPRPHLDPRP, the “shrunken log2 fold change” value was -0.131.
RRIRTRPPRLPRPRPRPFPPPRP: the “shrunken log2 fold change” value is -0.0137.
In the case of RRIRMRPPRLPRPRPRPYDCPRP, the “shrunken log2 fold change” value was -0.113.
For RRIRFRPPRLPRPRPRPIGCPRP the value was -0.111.
For RRIRYRPPRLPRPRPRPGAWPRP the value was 0.0731; for RRIRCRPPRLPRPRPRPCIGPRP, -0.204; for RRIRGRPPRLPRPRPRPERVPRP, 0.397.
The value for RRIRHRPPRLPRPRPRPTYKPRP was -0.333; that for RRIRWRPPRLPRPRPRPWSHPRP was -0.00467; that for RRIRDRPPRLPRPRPRPCNYPRP was -0.475.
Take RRIRCRPPRLPRPRPRPPMLPRP: the “shrunken log2 fold change” value was 0.0982.
With RRIRVRPPRLPRPRPRPTVKPRP, the “shrunken log2 fold change” value was 0.0641.
In the case of RRIRIRPPRLPRPRPRPVAFPRP, the “shrunken log2 fold change” value was -0.306.
For RRIRERPPRLPRPRPRPKGFPRP the value was 0.0527.
The value for RRIRYRPPRLPRPRPRPAAIPRP was -0.092; that for RRIRHRPPRLPRPRPRPVTFPRP was 0.00537; that for RRIRDRPPRLPRPRPRPYTIPRP was -0.0747.
The value for RRIRTRPPRLPRPRPRPTSIPRP was -0.195.
Regarding RRIRIRPPRLPRPRPRPWMNPRP, the “shrunken log2 fold change” value was -0.238.
Consider RRIRSRPPRLPRPRPRPVQFPRP, for which the “shrunken log2 fold change” value turned out to be 0.11.
For RRIRARPPRLPRPRPRPEKAPRP the value was 0.046; for RRIRLRPPRLPRPRPRPKAMPRP, -0.023; for RRIRERPPRLPRPRPRPETEPRP, 0.192.
The value for RRIRKRPPRLPRPRPRPTNVPRP was 0.221.
As to RRIRGRPPRLPRPRPRPTLGPRP, the “shrunken log2 fold change” value came out at 0.936.
For RRIRGRPPRLPRPRPRPKWFPRP the value was 0.0384.
The value for RRIRERPPRLPRPRPRPSLRPRP was -0.313; that for RRIRCRPPRLPRPRPRPNYFPRP was -0.763.
The value for RRIRHRPPRLPRPRPRPMLFPRP was -0.0839; that for RRIRKRPPRLPRPRPRPYCGPRP was 0.0176.
RRIRNRPPRLPRPRPRPLDHPRP: the “shrunken log2 fold change” value is -0.0699.
The value for RRIRLRPPRLPRPRPRPRSGPRP was 0.122; that for RRIRVRPPRLPRPRPRPQCRPRP was -0.167; that for RRIRPRPPRLPRPRPRPVDEPRP was 0.0247.
The value for RRIRCRPPRLPRPRPRPPTNPRP was 0.248; that for RRIRARPPRLPRPRPRPEAAPRP was 1.78; that for RRIRHRPPRLPRPRPRPGFRPRP was 0.237.
Consider RRIRNRPPRLPRPRPRPVIQPRP, for which the “shrunken log2 fold change” value came to 0.0549.
The value for RRIRIRPPRLPRPRPRPQEQPRP was -0.0376.
For RRIRYRPPRLPRPRPRPVNPPRP the value was -0.0594; for RRIRKRPPRLPRPRPRPPGNPRP, 0.712; for RRIRERPPRLPRPRPRPYKIPRP, -0.266.
On to RRIRNRPPRLPRPRPRPMENPRP, for which the “shrunken log2 fold change” value was -0.0164.
The value for RRIRTRPPRLPRPRPRPYPMPRP was -1.43; that for RRIRARPPRLPRPRPRPGCPPRP was 0.343.
The value for RRIRFRPPRLPRPRPRPLCSPRP was -0.566.
For RRIRSRPPRLPRPRPRPGLCPRP the value was 0.238.
Turning to RRIRQRPPRLPRPRPRPRKGPRP, the “shrunken log2 fold change” value amounted to 0.353.
RRIRIRPPRLPRPRPRPIWEPRP: the “shrunken log2 fold change” value was -0.0114.
